B1: Twister Ribozyme (parent)
chain: AACACUGCCAAUGCCGGUCCCAAGCCCGGAUAAAAGUGGAGGGGGCGG

Variants of: B1
Experiment: self-cleavage, relative activity (ratio to wild type); higher = more cleavage; co-transcriptional

| Variant | self-cleavage |
| --- | --- |
| AACACUGCCAAUGCCGGUCCCACGCCCGGAUAAAAGUGGAGGGGGGGG | 0.155 |
| AACACUGCCAAUGCCGGUCCCACGCCCGGAUAAAAGUGGAGGGGGUGG | 0.486 |
| AACACUGCCAAUGCCGGUCCCUAGCCCGGAUAAAAGUGGAGGGGCCGG | 0.401 |
| AACACUGCCAAUGCCGGUCCCUAGCCCGGAUAAAAGUGGAGGGGUCGG | 0.57 |
| AACACUGCCAAUGCCGGUCCCAGGCCCGGAUUAAAGUGGAGGGGGCGG | 0.393 |
| AACACUGCCAAUGCCGGUCCCUAGCGCGGAUAAAAGUGGAGGGGGCGG | 0.0767 |
| AACACUGCCAAUGCCGGUCCCAGGACCGGAUAAAAGUGGAGGGGGCGG | 0.0465 |
| AACACUGCCAAUGCCGGUCCCAGGUCCGGAUAAAAGUGGAGGGGGCGG | 0.132 |
| AACACUGCCAAUGCCGGUCCCAGGCCCGGAUAGAAGUGGAGGGGGCGG | 0.281 |
| AACACUGCCAAUGCCGGUCCCAGGCCCGGAUACAAGUGGAGGGGGCGG | 0.187 |
| AACACUGCCAAUGCCGGUCCCAGGCCCGGAUAUAAGUGGAGGGGGCGG | 0.393 |
| AACACUGCCAAUGCCGGUCCCACGCCCGGAUAAAAGUUGAGGGGGCGG | 0.107 |
| AACACUGCCAAUGCCGGUCCCACGCCCGGAUAAAAGUAGAGGGGGCGG | 0.131 |
| AACACUGCCAAUGCCGGUCCCAGGCACGGAUAAAAGUGGAGGGGGCGG | 0.0747 |
| AACACUGCCAAUGCCGGUCCCACACCCGGAUAAAAGUGGAGGGGGCGG | 0.107 |
| AACACUGCCAAUGCCGGUCCCACUCCCGGAUAAAAGUGGAGGGGGCGG | 0.0714 |
| AACACUGCCAAUGCCGGUCCCACGCCCGGACAAAAGUGGAGGGGGCGG | 0.247 |
| AACACUGCCAAUGCCGGUCCCACGCCCGGAAAAAAGUGGAGGGGGCGG | 0.363 |
| AACACUGCCAAUGCCGGUCCCACGCCCGGAGAAAAGUGGAGGGGGCGG | 0.274 |
| AACACUGCCAAUGCCGGUCCCAGGCCCAGAUAAAAGUGGAGGGGGCGG | 0.284 |
| AACACUGCCAAUGCCGGUCCCUAGCCCGGAUAAACGUGGAGGGGGCGG | 0.778 |
| AACACUGCCAAUGCCGGUCCCUAGCCCGGAUAAAUGUGGAGGGGGCGG | 0.659 |

| Variant | self-cleavage |
| --- | --- |
| AACACUGCCAAUGCCGGUCCCUAGCCCGGAUAAAAGUGGAGGGGGCUG | 0.67 |
| AACACUGCCAAUGCCGGUCCCACGCCCGGAUCAAAGUGGAGGGGGCGG | 0.22 |
| AACACUGCCAAUGCCGGUCCCACGCCCGGAUGAAAGUGGAGGGGGCGG | 0.187 |
| AACACUGCCAAUGCCGGUCCCAGGCCCGGAUAAAAGUGGAGGGGGAGG | 0.328 |
| AACACUGCCAAUGCCGGUCCCUAGCCCGGAUAAAAGUAGAGGGGGCGG | 0.843 |
| AACACUGCCAAUGCCGGUCCCUAGCCCGGAUAAAAGUUGAGGGGGCGG | 0.353 |
| AACACUGCCAAUGCCGGUCCCUAGCCCGGAUAAAAGUGGAGUGGGCGG | 0.191 |
| AACACUGCCAAUGCCGGUCCCUAGCCCGGAUAAAAGUGGAGCGGGCGG | 0.154 |
| AACACUGCCAAUGCCGGUCCCUAGCCCGGAUAAAAGUGAAGGGGGCGG | 0.099 |
| AACACUGCCAAUGCCGGUCCCUAGCCCGGAUAAAAGUGGAGGGAGCGG | 0.788 |
| AACACUGCCAAUGCCGGUCCCACGCCCGGAUAAAAGUGGAGGUGGCGG | 0.109 |
| AACACUGCCAAUGCCGGUCCCACGCCCGGAUAAAAGUGGAGGCGGCGG | 0.123 |
| AACACUGCCAAUGCCGGUCCCACGCCCGGAUAAAAGUGGAAGGGGCGG | 0.138 |
| AACACUGCCAAUGCCGGUCCCACGCCCGGAUAAAAGUGGAUGGGGCGG | 0.118 |
| AACACUGCCAAUGCCGGUCCCUAGCCCGGAUUAAAGUGGAGGGGGCGG | 0.71 |
| AACACUGCCAAUGCCGGUCCCUAGCCCGGAUCAAAGUGGAGGGGGCGG | 0.859 |
| AACACUGCCAAUGCCGGUCCCUAGCCCGGAUGAAAGUGGAGGGGGCGG | 0.786 |
| AACACUGCCAAUGCCGGUCCCAGGCCCGGAUAACAGUGGAGGGGGCGG | 0.0596 |
| AACACUGCCAAUGCCGGUCCCAGGCCCGGAUAAGAGUGGAGGGGGCGG | 0.112 |
| AACACUGCCAAUGCCGGUCCCACGCCCGGAUAAAAGUGGAGGGGGCGG | 0.385 |
| AACACUGCCAAUGCCGGUCCCAGGCCCGGAUAAAAGUGGAGGGGGCGG | 0.634 |
| AACACUGCCAAUGCCGGUCCCUAGCCAGGAUAAAAGUGGAGGGGGCGG | 0.159 |

| Variant | self-cleavage |
| --- | --- |
| AACACUGCCAAUGCCGGUCCCUAGCCCGGAUAACAGUGGAGGGGGCGG | 0.0816 |
| AACACUGCCAAUGCCGGUCCCUAGCCCGGAUAAUAGUGGAGGGGGCGG | 0.495 |
| AACACUGCCAAUGCCGGUCCCAGUCCCGGAUAAAAGUGGAGGGGGCGG | 0.063 |
| AACACUGCCAAUGCCGGUCCCAGCCCCGGAUAAAAGUGGAGGGGGCGG | 0.0875 |
| AACACUGCCAAUGCCGGUCCCAGACCCGGAUAAAAGUGGAGGGGGCGG | 0.12 |
| AACACUGCCAAUGCCGGUCCCACGCCUGGAUAAAAGUGGAGGGGGCGG | 0.0937 |
| AACACUGCCAAUGCCGGUCCCACGCCCGGAUAAAAGCGGAGGGGGCGG | 0.0915 |
| AACACUGCCAAUGCCGGUCCCUAGCCCCGAUAAAAGUGGAGGGGGCGG | 0.548 |
| AACACUGCCAAUGCCGGUCCCAGGCCCGGAUAAAAGUGGUGGGGGCGG | 0.125 |
| AACACUGCCAAUGCCGGUCCCAGGCCCGGAUAAAAGUGGCGGGGGCGG | 0.0453 |
| AACACUGCCAAUGCCGGUCCCAGGCCCGGAUAAAAGUGGGGGGGGCGG | 0.123 |
| AACACUGCCAAUGCCGGUCCCAGGCCCGGCUAAAAGUGGAGGGGGCGG | 0.0761 |
| AACACUGCCAAUGCCGGUCCCAGGCCCGCAUAAAAGUGGAGGGGGCGG | 0.1 |
| AACACUGCCAAUGCCGGUCCCACGCCCGGAUAAAAGUGGAGGGGUCGG | 0.156 |
| AACACUGCCAAUGCCGGUCCCACGCCCGGAUAAAAGUGGAGGGGACGG | 0.118 |
| AACACUGCCAAUGCCGGUCCCAGGCCGGGAUAAAAGUGGAGGGGGCGG | 0.0997 |
| AACACUGCCAAUGCCGGUCCCACGCCCGGAUAAAAGUGGCGGGGGCGG | 0.0967 |
| AACACUGCCAAUGCCGGUCCCACGCCCGGAUAAAAGUGGUGGGGGCGG | 0.146 |
| AACACUGCCAAUGCCGGUCCCACGCCCGGAUAAAAGUGGGGGGGGCGG | 0.128 |
| AACACUGCCAAUGCCGGUCCCACGCCCGGAUAAAAGUGGAGGGGGCGU | 0.181 |
| AACACUGCCAAUGCCGGUCCCACGCCCGGAUAAAAGUGGAGGGGGCGA | 0.14 |
| AACACUGCCAAUGCCGGUCCCAGGCCCGGAUAAAUGUGGAGGGGGCGG | 0.472 |

| Variant | self-cleavage |
| --- | --- |
| AACACUGCCAAUGCCGGUCCCAGGCCCGGAUAAACGUGGAGGGGGCGG | 0.499 |
| AACACUGCCAAUGCCGGUCCCAGGCCCGGAUAAAGGUGGAGGGGGCGG | 0.188 |
| AACACUGCCAAUGCCGGUCCCAGGCCCGGAUAAAAAUGGAGGGGGCGG | 0.126 |
| AACACUGCCAAUGCCGGUCCCACGACCGGAUAAAAGUGGAGGGGGCGG | 0.066 |
| AACACUGCCAAUGCCGGUCCCACGGCCGGAUAAAAGUGGAGGGGGCGG | 0.0881 |
| AACACUGCCAAUGCCGGUCCCACGCCCGGAUAAAAGUGCAGGGGGCGG | 0.103 |
| AACACUGCCAAUGCCGGUCCCACGCCCGGAUAAAAGUGAAGGGGGCGG | 0.127 |
| AACACUGCCAAUGCCGGUCCCUAGCCCGGAUAGAAGUGGAGGGGGCGG | 0.888 |
| AACACUGCCAAUGCCGGUCCCACGCACGGAUAAAAGUGGAGGGGGCGG | 0.199 |
| AACACUGCCAAUGCCGGUCCCACGCGCGGAUAAAAGUGGAGGGGGCGG | 0.12 |
| AACACUGCCAAUGCCGGUCCCUAGCCCGGAUAAAAAUGGAGGGGGCGG | 0.179 |
| AACACUGCCAAUGCCGGUCCCUAGCCCGGAUAAAACUGGAGGGGGCGG | 0.19 |
| AACACUGCCAAUGCCGGUCCCUAGCCCGGAUAAAAGUGGAUGGGGCGG | 0.137 |
| AACACUGCCAAUGCCGGUCCCUAGCCCGCAUAAAAGUGGAGGGGGCGG | 0.604 |
| AACACUGCCAAUGCCGGUCCCUAGCCCGAAUAAAAGUGGAGGGGGCGG | 0.644 |
| AACACUGCCAAUGCCGGUCCCUACCCCGGAUAAAAGUGGAGGGGGCGG | 0.0864 |
| AACACUGCCAAUGCCGGUCCCUAUCCCGGAUAAAAGUGGAGGGGGCGG | 0.11 |
| AACACUGCCAAUGCCGGUCCCACGCCCGGAUAAAUGUGGAGGGGGCGG | 0.404 |
| AACACUGCCAAUGCCGGUCCCUAGCCCGGAUAAAAGUGGAGGGGGAGG | 0.764 |
| AACACUGCCAAUGCCGGUCCCUAGCCCGGAUAAAAGUGGAGGGGGGGG | 0.816 |
| AACACUGCCAAUGCCGGUCCCACGCCCGGAUAAAAGUGGAGGGGGCCG | 0.13 |
| AACACUGCCAAUGCCGGUCCCUAGACCGGAUAAAAGUGGAGGGGGCGG | 0.0894 |

| Variant | self-cleavage |
| --- | --- |
| AACACUGCCAAUGCCGGUCCCUAGGCCGGAUAAAAGUGGAGGGGGCGG | 0.115 |
| AACACUGCCAAUGCCGGUCCCACGCCCGAAUAAAAGUGGAGGGGGCGG | 0.196 |
| AACACUGCCAAUGCCGGUCCCACGCCCCGAUAAAAGUGGAGGGGGCGG | 0.0761 |
| AACACUGCCAAUGCCGGUCCCACGCCCAGAUAAAAGUGGAGGGGGCGG | 0.225 |
| AACACUGCCAAUGCCGGUCCCACGCCCGGAUAAAAGUGGAGAGGGCGG | 0.113 |
| AACACUGCCAAUGCCGGUCCCACGCCCGGAUAAAAGUGGAGCGGGCGG | 0.156 |
| AACACUGCCAAUGCCGGUCCCACGCCCGGAUAAAAGUGGAGUGGGCGG | 0.0925 |
| AACACUGCCAAUGCCGGUCCCUAGCCCGGAGAAAAGUGGAGGGGGCGG | 0.833 |
| AACACUGCCAAUGCCGGUCCCUAGCCCGGAAAAAAGUGGAGGGGGCGG | 0.521 |
| AACACUGCCAAUGCCGGUCCCACGCCCGGCUAAAAGUGGAGGGGGCGG | 0.116 |
| AACACUGCCAAUGCCGGUCCCACGCCCGGUUAAAAGUGGAGGGGGCGG | 0.264 |
| AACACUGCCAAUGCCGGUCCCUAGCCCGGAUAAAAGUGGAGGUGGCGG | 0.185 |
| AACACUGCCAAUGCCGGUCCCUAGCCCGGAUAAAAGUGGAGGAGGCGG | 0.136 |
| AACACUGCCAAUGCCGGUCCCUAGCCCGGAUAAAAGUGGGGGGGGCGG | 0.734 |
| AACACUGCCAAUGCCGGUCCCUAGCCCGGAUAAAAGUGGCGGGGGCGG | 0.184 |
| AACACUGCCAAUGCCGGUCCCACGCCCGGAUAAUAGUGGAGGGGGCGG | 0.0811 |
| AACACUGCCAAUGCCGGUCCCACGCCCGGAUAACAGUGGAGGGGGCGG | 0.161 |
| AACACUGCCAAUGCCGGUCCCACGCCCGGAUAAAACUGGAGGGGGCGG | 0.102 |
| AACACUGCCAAUGCCGGUCCCUAGCCCGGAUAAAAGCGGAGGGGGCGG | 0.236 |
| AACACUGCCAAUGCCGGUCCCUAGCCCGGAUAAAAGGGGAGGGGGCGG | 0.554 |

— the RNAGym collection of RNA variant scans (doi:10.7554/elife.80360)
